Laboratory results taken from article PMC2891831, “Insight into the Mechanisms of Adenovirus Capsid Disassembly from Studies of Defensin Neutralization” (PLoS Pathogens, 2010).

How the values were obtained:
HAdV species E = assay: Infection assay (hexon staining), HAdV species E; format: cell-based, human adenovirus; settings: 15 µM HD5, A549 cells, hexon staining at ~48 h, vs. no defensin
Protocol: To determine whether sensitivity to α-defensins is a general property of HAdVs, serotypes representative of HAdV species A–F were tested for infectivity in the presence of 15 µM HD5 or HNP1 (Figure 1). Wild type HAdVs rather than vectors were used for these studies, and infectivity was assessed by staining for hexon production. […] These studies indicate that sensitivity to α-defensins is species specific. In addition, particular HAdV serotypes are not equally sensitive to all defensins, indicating defensin sequence specificity as well.
Figure 1 Sensitivity to neutralization by alpha-defensins is AdV species specific. HAdVs were incubated with 15 µM HD5 (A) or HNP1 (B) and assessed for infectivity on A549 cells. Data are the mean of the percent infectivity compared to control cells infected with each virus in the absence of defensin for at least three independent experiments ± SD. The upper limit for quantification of this assay is 200%. […]
Prior to use in this assay, each virus stock was titrated on A549 cells. […] In parallel, wells were infected with two-fold serial dilutions of each virus to establish a standard curve for quantification with an upper limit of 200%. […] Total well fluorescence above background was quantified with ImageJ software. For each virus, samples were quantified by nonlinear regression against the standard curve using Prism software (GraphPad Software, Inc., La Jolla, CA).

[1] = ref [40], [44]; cited from earlier work
Text: The extensive difference density attributable to HD5 in our cryoEM analysis of Ad5.F35+HD5 is consistent with our estimated stoichiometry. HD5 binding sites were found on all of the major proteins of the capsid. […] The accumulation of HD5 difference density was not equal among the four unique hexon positions in the asymmetric unit but rather was greatest on the peripentonal hexons. Since the possible binding sites presented by each hexon a ...

HAdV-25p = assay: Virus-defensin binding assay, HAdV-25p; set-up: species or system human adenovirus
Text: Figure 2 HD5 binding to HAdV. A) HD5 binding to a representative defensin-sensitive serotype (HAdV-5) was quantified by an equilibrium-binding assay. Data are the mean of the number of HD5 molecules bound per virion at the indicated HD5 concentrations from at least three independent experiments ± SD. Binding curves were fitted using Prism software. B) Binding of HD5 to additional defensin-sensitive (HAdV-7p) and resistant (HAdV-19c, -25p, -51p) serotypes expressed as a percent of HD5 bound to HAdV-5. Data are the mean of two or three independent experiments ± SD.
We assessed HD5 binding to additional serotypes after incubation with 20 µM HD5 (Figure 2B). The sensitive serotype HAdV-7p bound 69.3±15.9% of the amount of HD5 bound to HAdV-5 in parallel samples; whereas, the corresponding values for the resistant serotypes HAdV-19c, -25p, and -51p were 32.5±7.5%, 3.3±5.8%, and 24.6±12.0%, respectively.
To measure HD5 binding to HAdV-5 and -51, HD5 was serially diluted in PBS and mixed with 5 µg purified virus. […] The other half of each sample was used to make a standard curve for quantification. […] Virus bands were quantified using ImageQuant NT software (GE Healthcare). […] The amount of HD5 in the centrifuged samples was then quantified against the standard curve using Prism software. […]

HAdV-5 = settings: ref [13], cited from earlier work
Protocol: In order to determine the receptor-dependence of this effect, we pre-incubated cells with recombinant fiber knob from HAdV-5 (5FK) to block receptor (CAR) interactions and measured cell binding of fluorescently labeled HAdV-5 that was pre-incubated with or without HD5 or HD5-Abu (Figure 3C). Cells incubated with fiber knob from HAdV-16 (16FK), which binds CD46, served as a control. […] Therefore, we considered which of the multiple binding sites visualized by cryoEM might lead to enhanced virion stability. We reasoned that we might find a negatively charged region o ...

HAdV-5 capsid = settings: previous observation; cited from earlier work
Text: Therefore, we considered which of the multiple binding sites visualized by cryoEM might lead to enhanced virion stability. We reasoned that we might find a negatively charged region o ... || Based on our combined functional and structural studies, we propose a model for neutralization in which α-defensins bind to critical capsid determinants at the point of contact between fiber and penton base, thereby preventing fiber release. One implication of this model is that fiber dissociation is absolutely required for subsequent uncoating events. This model cannot distinguish between the dissociation of fiber and penton base from the capsid independently or together as a complex. In the first case, defensin may actively lock the fiber onto the penton base. Alternatively, HD5 may obstruct ...

HAdV-7 = assay: Virus-defensin binding, HAdV-7; set-up: species or system human adenovirus

B1: HD5: human alpha-defensin; synthetic, obtained from Peptides International; three disulfide bonds (PDB 1ZMP) (peptide, UniProt Q01523 20-94, looked up)
Defensin alpha 5: ESLQERADEATTQKQSGEDNQDLAISFAGNGLSALRTSGSQARATCYCRTGRCATRESLSGVCEISGRLYRLCCR
modifications: Defensin-5
- sensitivity to neutralization (infectivity) (HAdV species E): sensitive
- concentration at which HD5 forms dimers and tetramers [1]: below 5 µM
- HD5 bound, percent of HD5 bound to HAdV-5 (HAdV-25p; 20 µM HD5, mean of two or three independent experiments ± SD): 3.3±5.8%
- level of HD5 binding (in words) (HAdV-25p; HAdV-25p): only a low level of binding
- effect on HAdV-5 entry into host cells (HAdV-5; [36]): does not prevent HAdV-5 from entering host cells
- binding of HAdV-5 to cells (HAdV-5): enhances binding of HAdV-5 to cells
- effect on capsid proteins upon exposure to heat (HAdV-5 capsid): stabilizes the capsid and prevents dissociation of capsid proteins, including fiber, upon exposure to heat
- level of HD5 binding (in words) (HAdV-7): specific binding
